Measurements reported in article PMC6419104, “Structural basis of guanine nucleotide exchange for Rab11 by SH3BP5” (Life Science Alliance, 2019).
Blank lines part the entries; values can stand above or below the binder they belong to.

Assays:
[1] = target: Rab11a (1–211) E39A (human) (UniProt P62491)
[2] = target: Rab11a (1–211) K41A (human) (UniProt P62491)
[3] = target: Rab11a (1–211) L38A (human) (UniProt P62491)
[4] = target: Rab11a (1–211) S40A (human) (UniProt P62491)
[5] = target: Rab11a (1–211) S42A (human) (UniProt P62491)
[6] = target: Rab11a (1–173) (human) (UniProt P62491)
[7] = target: T1, SH3BP5 (10–276) (human, UniProt O60239 10-276); assay: crystal structure; SH3BP5 (10–276)–Rab11a (1–173) complex at 6.2 g/l, sitting drop vapor diffusion at 20°C; reservoir 0.4–0.75 M NaCl, 0.1 M NaH2PO4 (pH 6.8), 15–17% PEG2000; 3.8 Å; four complexes in the asymmetric unit; details: both partners purified
T1 construct: Residues 10–41 and 268–276 were invisible in the electron density; The purification of this construct and of the complex is not described; also called wild-type SH3BP5 (10–276); source: E. coli Rosetta (DE3)
T1 sequence (looked up): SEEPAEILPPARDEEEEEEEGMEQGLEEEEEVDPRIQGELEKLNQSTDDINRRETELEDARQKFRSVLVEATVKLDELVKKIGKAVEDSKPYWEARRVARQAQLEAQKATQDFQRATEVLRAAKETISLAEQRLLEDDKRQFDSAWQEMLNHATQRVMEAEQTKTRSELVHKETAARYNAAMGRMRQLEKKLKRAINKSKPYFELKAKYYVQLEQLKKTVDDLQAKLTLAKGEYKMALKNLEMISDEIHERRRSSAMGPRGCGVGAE

GEF activity: Mant-GDP release from Rab11a by fluorescence, with GppNHp (% of the wild-type activity) [1]: 50
GEF activity: Mant-GDP release from Rab11a by fluorescence, with GppNHp (% of the wild-type activity) [2]: 25
GEF activity: Mant-GDP release from Rab11a by fluorescence, with GppNHp (% of the wild-type activity) [3]: 50
GEF activity: Mant-GDP release from Rab11a by fluorescence, with GppNHp (% of the wild-type activity) [4]: 25
GEF activity: Mant-GDP release from Rab11a by fluorescence, with GppNHp (% of the wild-type activity) [5]: 25
B1: SH3BP5 (41–266; R260A/R261A/R262A) (domain or fragment)
chain: VDPRIQGELEKLNQSTDDINRRETELEDARQKFRSVLVEATVKLDELVKKIGKAVEDSKPYWEARRVARQAQLEAQKATQDFQRATEVLRAAKETISLAEQRLLEDDKRQFDSAWQEMLNHATQRVMEAEQTKTRSELVHKETAARYNAAMGRMRQLEKKLKRAINKSKPYFELKAKYYVQLEQLKKTVDDLQAKLTLAKGEYKMALKNLEMISDEIHEAAASSAM

GEF activity: Mant-GDP release from Rab11a by fluorescence, with GppNHp (%, relative to wild type) [6]: 50
B2: SH3BP5-RA E251A (domain or fragment)
chain: VDPRIQGELEKLNQSTDDINRRETELEDARQKFRSVLVEATVKLDELVKKIGKAVEDSKPYWEARRVARQAQLEAQKATQDFQRATEVLRAAKETISLAEQRLLEDDKRQFDSAWQEMLNHATQRVMEAEQTKTRSELVHKETAARYNAAMGRMRQLEKKLKRAINKSKPYFELKAKYYVQLEQLKKTVDDLQAKLTLAKGEYKMALKNLAMISDEIHEAAASSAM

binding result [7]: binds
B3: Rab11a (1–173) (domain or fragment, human, UniProt P62491 1-173, looked up)
chain: MGTRDDEYDYLFKVVLIGDSGVGKSNLLSRFTRNEFNLESKSTIGVEFATRSIQVDGKTIKAQIWDTAGQERYRAITSAYYRGAVGALLVYDIAKHLTYENVERWLKELRDHADSNIVIMLVGNKSDLRHLRAVPTDEARAFAEKNGLSFIETSALDSTNVEAAFQTILTEIY
notes: human Rab11a, residues 1–173; Nucleotide-free in the complex structure (a phosphate ion on the P loop); loaded with Mant-GDP in the GEF assay; source: E. coli Rosetta (DE3), purified (Ni-NTA, Ulp1 cleavage, Superdex200, second Ni-NTA); not shown: His6-SUMO, N-terminal, cleaved
